Target: fluorescent tagged eIF4E-3 (Drosophila melanogaster)
Test: FRET or BRET

B1: fluorescent tagged Me31B (FRET partner of eIF4E-3) (natural protein)
chain: MMTEKLNSGHTNLTSKGIINDLQIAGNTSDDMGWKSKLKLPPKDNRFKTTDVTDTRGNEFEEFCLKRELLMGIFEKGWERPSPIQEAAIPIALSGKDVLARAKNGTGKTGAYCIPVLEQIDPTKDYIQALVMVPTRELALQTSQICIELAKHLDIRVMVTTGGTILKDDILRIYQKVQLIIATPGRILDLMDKKVADMSHCRILVLDEADKLLSLDFQGMLDHVILKLPKDPQILLFSATFPLTVKNFMEKHLREPYEINLMEELTLKGVTQYYAFVQERQKVHCLNTLFSKLQINQSIIFCNSTQRVELLAKKITELGYCCYYIHAKMAQAHRNRVFHDFRQGLCRNLVCSDLFTRGIDVQAVNVVINFDFPRMAETYLHRIGRSGRFGHLGIAINLITYEDRFDLHRIEKELGTEIKPIPKVIDPALYVANVGASVGDTCNNSDLNNSANEEGNVSK
Question: For B1, which FRET efficiency is on record?
Answer: Its FRET efficiency is 25%.

From publication doi:10.1101/2021.03.23.436655
